Experimental data published in the supplement of paper PMC9112550, “Optimization of the antimicrobial peptide Bac7 by deep mutational scanning” (BMC Biology, 2022).

Test system: Escherichia coli TOP10
Assay: shrunken log2 fold change of peptide-encoding DNA abundance (4.5 h post-induction vs induction); higher = less antimicrobial activity (less host growth inhibition)
Conditions: time post-induction: 4.5 h; library: site-saturation at positions 5, 18, 19, 20
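Also: peptides expressed intracellularly from a pBAD plasmid library in pooled LB shake-flask culture, induced with 0.3% L-arabinose, DNA abundance read by NGS, three biological replicates, DESeq2 with apeglm shrinkage.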

Sequence	shrunken log2 fold change
RRIRYRPPRLPRPRPRPPHAPRP	-0.0606
RRIRKRPPRLPRPRPRPDNPPRP	-0.0237
RRIRKRPPRLPRPRPRPIWTPRP	-0.00674
RRIRERPPRLPRPRPRPGDLPRP	-0.0898
RRIRHRPPRLPRPRPRPSVRPRP	-0.158
RRIRWRPPRLPRPRPRPQKVPRP	0.166
RRIRSRPPRLPRPRPRPRNQPRP	0.205
RRIRKRPPRLPRPRPRPKMKPRP	0.444
RRIRVRPPRLPRPRPRPGAGPRP	0.284
RRIRNRPPRLPRPRPRPVISPRP	0.156
RRIRTRPPRLPRPRPRPICPPRP	-0.0534
RRIRGRPPRLPRPRPRPLRDPRP	1.3
RRIRDRPPRLPRPRPRPHDNPRP	-0.323
RRIRGRPPRLPRPRPRPNDDPRP	0.349
RRIRMRPPRLPRPRPRPCSSPRP	-0.0756
RRIRPRPPRLPRPRPRPHADPRP	-0.161
RRIRVRPPRLPRPRPRPIGKPRP	-0.129
RRIRDRPPRLPRPRPRPRERPRP	0.352
RRIRYRPPRLPRPRPRPKWDPRP	-0.46
RRIRGRPPRLPRPRPRPCLHPRP	0.331
RRIRWRPPRLPRPRPRPMWPPRP	0.214
RRIRPRPPRLPRPRPRPLGWPRP	0.442
RRIRERPPRLPRPRPRPYKQPRP	-0.049
RRIRGRPPRLPRPRPRPMMNPRP	0.159
RRIRARPPRLPRPRPRPKFDPRP	0.376

Sequence	shrunken log2 fold change
RRIRQRPPRLPRPRPRPAKPPRP	-0.0548
RRIRDRPPRLPRPRPRPANLPRP	-0.0687
RRIRARPPRLPRPRPRPVHSPRP	0.0799
RRIRNRPPRLPRPRPRPKCEPRP	-0.0549
RRIRHRPPRLPRPRPRPLKPPRP	0.18
RRIRIRPPRLPRPRPRPHSTPRP	-0.428
RRIRIRPPRLPRPRPRPGCEPRP	-0.0688
RRIRLRPPRLPRPRPRPFAKPRP	-0.118
RRIRYRPPRLPRPRPRPYDHPRP	-0.474
RRIRHRPPRLPRPRPRPQKKPRP	-0.421
RRIRPRPPRLPRPRPRPNVCPRP	-0.169
RRIRARPPRLPRPRPRPHTPPRP	0.152
RRIRWRPPRLPRPRPRPVCIPRP	0.12
RRIRARPPRLPRPRPRPVDGPRP	0.381
RRIRYRPPRLPRPRPRPGVDPRP	-0.0308
RRIRWRPPRLPRPRPRPPKKPRP	1.27
RRIRTRPPRLPRPRPRPEFKPRP	0.0563
RRIRDRPPRLPRPRPRPDYTPRP	-0.276
RRIRYRPPRLPRPRPRPHCPPRP	-0.0417
RRIRRRPPRLPRPRPRPDFAPRP	0.39
RRIRKRPPRLPRPRPRPGQFPRP	0.00171
RRIRIRPPRLPRPRPRPMDPPRP	-0.347
RRIRARPPRLPRPRPRPAGWPRP	1.56
RRIRLRPPRLPRPRPRPPIMPRP	-0.239
RRIRWRPPRLPRPRPRPKDAPRP	0.362

Sequence	shrunken log2 fold change
RRIRRRPPRLPRPRPRPCPGPRP	-0.196
RRIRGRPPRLPRPRPRPCTDPRP	0.522
RRIRTRPPRLPRPRPRPWISPRP	-0.0102
RRIRPRPPRLPRPRPRPKYEPRP	-0.203
RRIRERPPRLPRPRPRPSEHPRP	-0.0752
RRIRLRPPRLPRPRPRPKQLPRP	-0.0685
RRIRTRPPRLPRPRPRPNDIPRP	-0.873
RRIRIRPPRLPRPRPRPGCPPRP	-0.304
RRIRERPPRLPRPRPRPMLRPRP	-0.0352
RRIRIRPPRLPRPRPRPQNRPRP	-0.386
RRIRNRPPRLPRPRPRPGKAPRP	-0.181
RRIRHRPPRLPRPRPRPTLQPRP	-0.0103
RRIRFRPPRLPRPRPRPSSVPRP	-0.503
RRIRVRPPRLPRPRPRPGASPRP	0.583
RRIRSRPPRLPRPRPRPCNHPRP	-0.361
RRIRDRPPRLPRPRPRPIVNPRP	-0.0751
RRIRCRPPRLPRPRPRPEVCPRP	0.0143
RRIRIRPPRLPRPRPRPMTQPRP	0.0472
RRIRIRPPRLPRPRPRPLNFPRP	-0.434
RRIRWRPPRLPRPRPRPSMQPRP	-0.0561
RRIRGRPPRLPRPRPRPSKCPRP	-0.313
RRIRLRPPRLPRPRPRPALGPRP	0.935
RRIRQRPPRLPRPRPRPCLNPRP	-0.632
RRIRERPPRLPRPRPRPWPEPRP	-0.0215
RRIRDRPPRLPRPRPRPEKAPRP	0.236

Sequence	shrunken log2 fold change
RRIRLRPPRLPRPRPRPNAPPRP	0.0456
RRIRVRPPRLPRPRPRPRFLPRP	-0.247
RRIRTRPPRLPRPRPRPFNIPRP	-0.333
RRIRIRPPRLPRPRPRPYWSPRP	0.0464
RRIRVRPPRLPRPRPRPTAPPRP	0.175
RRIRFRPPRLPRPRPRPVGKPRP	0.13
RRIRVRPPRLPRPRPRPWEWPRP	0.0039
RRIRSRPPRLPRPRPRPDAGPRP	0.569
RRIRNRPPRLPRPRPRPDDTPRP	0.0119
RRIRVRPPRLPRPRPRPVMYPRP	-0.251
RRIRYRPPRLPRPRPRPGAFPRP	-0.805
RRIRIRPPRLPRPRPRPMGFPRP	0.0523
RRIRWRPPRLPRPRPRPARNPRP	0.256
RRIRCRPPRLPRPRPRPFMPPRP	-0.402
RRIRIRPPRLPRPRPRPPIVPRP	-0.68
RRIRMRPPRLPRPRPRPPMHPRP	0.704
RRIRERPPRLPRPRPRPQLAPRP	0.00697
RRIRTRPPRLPRPRPRPAAYPRP	-0.000154
RRIRCRPPRLPRPRPRPCSMPRP	-0.0191
RRIRGRPPRLPRPRPRPYTKPRP	-0.216
RRIRVRPPRLPRPRPRPHYQPRP	-0.213
RRIRNRPPRLPRPRPRPFTFPRP	-0.628
RRIRTRPPRLPRPRPRPVACPRP	-0.0699
RRIRFRPPRLPRPRPRPHPEPRP	-0.00858
RRIRRRPPRLPRPRPRPSHFPRP	-0.262

Sequence	shrunken log2 fold change
RRIRWRPPRLPRPRPRPTYNPRP	0.4
RRIRQRPPRLPRPRPRPPRDPRP	1.25
RRIRNRPPRLPRPRPRPPCIPRP	-0.662
RRIRVRPPRLPRPRPRPVFDPRP	-0.079
RRIRPRPPRLPRPRPRPKMSPRP	-0.0151
RRIRGRPPRLPRPRPRPMYFPRP	-0.0129
RRIRSRPPRLPRPRPRPTTVPRP	0.14
RRIRIRPPRLPRPRPRPTCLPRP	-0.0168
RRIRRRPPRLPRPRPRPRVRPRP	0.649
RRIRDRPPRLPRPRPRPSTWPRP	-0.0672
RRIRMRPPRLPRPRPRPRWYPRP	0.0191
RRIRVRPPRLPRPRPRPTDFPRP	-0.0704
RRIRGRPPRLPRPRPRPFWNPRP	0.087
RRIRIRPPRLPRPRPRPPSKPRP	0.147
RRIRWRPPRLPRPRPRPTPSPRP	0.564
RRIRKRPPRLPRPRPRPTMPPRP	0.282
RRIRLRPPRLPRPRPRPYPTPRP	-0.317
RRIRLRPPRLPRPRPRPTSTPRP	-0.194
RRIRFRPPRLPRPRPRPIFKPRP	-0.153
RRIRVRPPRLPRPRPRPHQLPRP	-0.243
RRIRNRPPRLPRPRPRPSANPRP	-0.379
RRIRIRPPRLPRPRPRPMHSPRP	-0.0586
RRIRPRPPRLPRPRPRPVQPPRP	0.000272
RRIRARPPRLPRPRPRPAYRPRP	-0.086
RRIRLRPPRLPRPRPRPLQAPRP	0.128

Sequence	shrunken log2 fold change
RRIRERPPRLPRPRPRPNVPPRP	-0.0158
RRIRERPPRLPRPRPRPRFSPRP	-0.0175
RRIRKRPPRLPRPRPRPPPWPRP	1.03
RRIRIRPPRLPRPRPRPLEDPRP	-0.0413
RRIRARPPRLPRPRPRPTWEPRP	1.02
RRIRTRPPRLPRPRPRPKATPRP	-0.146
RRIRIRPPRLPRPRPRPGPSPRP	0.108
RRIRTRPPRLPRPRPRPFFIPRP	-0.518
RRIRLRPPRLPRPRPRPQSYPRP	-0.242
RRIRQRPPRLPRPRPRPSGDPRP	-0.00374
RRIRFRPPRLPRPRPRPSWRPRP	0.167
RRIRMRPPRLPRPRPRPRLCPRP	1.66
RRIRGRPPRLPRPRPRPTIMPRP	0.365
RRIRGRPPRLPRPRPRPHSAPRP	0.0365
RRIRRRPPRLPRPRPRPMMQPRP	0.112
RRIRRRPPRLPRPRPRPHVHPRP	0.0274
RRIRTRPPRLPRPRPRPSNKPRP	-0.916
RRIRARPPRLPRPRPRPCMQPRP	-0.125
RRIRARPPRLPRPRPRPGLKPRP	0.469
RRIRMRPPRLPRPRPRPSIPPRP	-0.316
RRIRFRPPRLPRPRPRPNMKPRP	0.234
RRIRMRPPRLPRPRPRPDHLPRP	-0.0674
RRIRTRPPRLPRPRPRPHPGPRP	0.106
RRIRLRPPRLPRPRPRPNCQPRP	0.0269
RRIRRRPPRLPRPRPRPLLNPRP	-0.00444
